The values that follow are results of earlier work, collected in publication PMC3472031.

In data set [1] the target is SOS-A peptide (UniProt Q07889).
Data set [2] deals with SOS-E peptide (UniProt Q07889).
Data set [3] deals with EspFU peptide (Escherichia coli) (UniProt P0DJ88). Description: ITC.
The target of data set [4] is EspFU (Escherichia coli) (UniProt P0DJ88).
In data set [5] the target is EspFU R475 R475 (fifth 47-residue repeat) (Escherichia coli O157:H7) (UniProt P0DJ88).

Regarding Grb2 (from UniProt P62993), the Kd in data set [1] was 54000 nM; in data set [2], 3500 nM.

In the case of IRTKS SH3 (from UniProt Q9UHR4), the Kd in data set [3] is 500 nM.

With N-WASP 193-501 (from UniProt O00401), in data set [4], the Kd is 35 nM.

Turning to N-WASPC 193-501 (from UniProt O00401), the Kd in data set [5] was 35 nM.
